These results are taken from patent EP1426444A2 (Technion Research & Development Co., Ltd., dated 2004).

The assay addresses T1, KDR/flk-1 VEGF receptor of HUVEC cells (human, UniProt P35968 20-1356).
T1 construct: whole, on cells; Endogenous receptor on confluent HUVEC cells; also called the larger VEGF receptor of HUVEC cells
As to the kind of experiment: overview table, row 'Binding to Flk-1 and Flt-1 receptors'.

T1 sequence (P35968 20-1356): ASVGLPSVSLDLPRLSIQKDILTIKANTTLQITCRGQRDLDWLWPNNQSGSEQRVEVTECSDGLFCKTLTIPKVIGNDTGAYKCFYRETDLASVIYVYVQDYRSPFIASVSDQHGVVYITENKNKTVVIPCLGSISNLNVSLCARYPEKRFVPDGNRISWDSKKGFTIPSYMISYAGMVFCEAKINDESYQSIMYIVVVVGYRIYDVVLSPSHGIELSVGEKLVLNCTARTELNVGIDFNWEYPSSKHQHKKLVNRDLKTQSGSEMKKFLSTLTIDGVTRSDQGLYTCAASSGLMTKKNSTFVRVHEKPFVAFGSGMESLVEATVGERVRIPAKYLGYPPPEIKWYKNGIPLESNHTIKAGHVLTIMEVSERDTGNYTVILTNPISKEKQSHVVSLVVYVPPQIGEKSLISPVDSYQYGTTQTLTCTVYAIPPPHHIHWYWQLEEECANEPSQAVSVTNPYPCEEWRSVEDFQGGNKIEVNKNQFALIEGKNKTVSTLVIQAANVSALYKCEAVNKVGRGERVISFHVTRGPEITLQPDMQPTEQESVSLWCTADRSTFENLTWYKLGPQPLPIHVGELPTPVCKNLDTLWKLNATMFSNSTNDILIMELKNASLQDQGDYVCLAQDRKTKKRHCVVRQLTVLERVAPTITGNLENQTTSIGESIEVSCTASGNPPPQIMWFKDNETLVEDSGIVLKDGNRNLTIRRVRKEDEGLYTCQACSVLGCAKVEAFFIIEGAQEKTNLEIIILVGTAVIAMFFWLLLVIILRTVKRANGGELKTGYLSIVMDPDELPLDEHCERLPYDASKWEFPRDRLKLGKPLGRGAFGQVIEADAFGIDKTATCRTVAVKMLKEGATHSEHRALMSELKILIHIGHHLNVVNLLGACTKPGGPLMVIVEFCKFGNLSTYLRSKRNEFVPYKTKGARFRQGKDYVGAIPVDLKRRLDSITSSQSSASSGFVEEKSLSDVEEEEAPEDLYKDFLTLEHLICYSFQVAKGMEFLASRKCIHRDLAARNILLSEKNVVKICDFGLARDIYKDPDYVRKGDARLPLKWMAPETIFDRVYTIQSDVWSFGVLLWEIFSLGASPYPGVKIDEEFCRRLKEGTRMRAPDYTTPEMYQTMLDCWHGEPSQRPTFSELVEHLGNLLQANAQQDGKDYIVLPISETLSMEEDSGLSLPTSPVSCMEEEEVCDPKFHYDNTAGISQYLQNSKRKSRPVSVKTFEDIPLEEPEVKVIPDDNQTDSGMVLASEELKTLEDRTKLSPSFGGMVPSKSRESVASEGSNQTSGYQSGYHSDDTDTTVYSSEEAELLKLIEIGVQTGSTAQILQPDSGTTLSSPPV

B1: VEGF121 (ligand, human, UniProt P15692-9 27-147, looked up)
chain: APMAEGGGQNHHEVVKFMDVYQRSYCHPIETLVDIFQEYPDEIEYIFKPSCVPLMRCGGCCNDEGLECVPTEESNITMQIMRIKPHQGQHIGEMSFLQHNKCECRPKKDRARQEKCDKPRR
notes: mature
B1: the binding result was “binds”.

B2: VEGF145 (recombinant, produced in Sf9 insect cells by baculovirus) (ligand)
chain: APMAEGGGQNHHEVVKFMDVYQRSYCHPIETLVDIFQEYPDEIEYIFKPSCVPLMRCGGCCNDEGLECVPTEESNITMQIMRIKPHQGQHIGEMSFLQHNKCECRPKKDRARQEKKSVRGKGKGQKRKRKKSRYKSWSVCDKPRR
notes: partially purified on heparin-sepharose; also called VEGF exons 1-5, 6a, 8
Take B2: the binding result is listed as “binds”.
